Test results reported in patent publication US20160024210A1 (AstraZeneca / MedImmune, published 2016).

T1: H7CR-GFP fusion protein on transfected CHO cells (Homo sapiens (Human), UniProt Q96BF3 23-282)
T1 construct: not shown: GFP part
T1 sequence: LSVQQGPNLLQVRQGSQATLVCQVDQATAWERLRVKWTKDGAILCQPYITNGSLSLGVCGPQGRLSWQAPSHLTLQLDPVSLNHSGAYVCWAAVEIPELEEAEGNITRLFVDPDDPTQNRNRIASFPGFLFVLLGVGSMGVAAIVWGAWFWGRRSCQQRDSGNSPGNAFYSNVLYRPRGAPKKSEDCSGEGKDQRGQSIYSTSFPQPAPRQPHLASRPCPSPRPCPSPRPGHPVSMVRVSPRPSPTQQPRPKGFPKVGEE

T2: human H7CR (B7-H7 counter-receptor) (human, UniProt Q96BF3 23-282)
T2 construct: Used for H7CR on CHO.hH7CR transfectants, human T cells and tonsil tissue; also called B7-H7CR; CD28H
T2 sequence: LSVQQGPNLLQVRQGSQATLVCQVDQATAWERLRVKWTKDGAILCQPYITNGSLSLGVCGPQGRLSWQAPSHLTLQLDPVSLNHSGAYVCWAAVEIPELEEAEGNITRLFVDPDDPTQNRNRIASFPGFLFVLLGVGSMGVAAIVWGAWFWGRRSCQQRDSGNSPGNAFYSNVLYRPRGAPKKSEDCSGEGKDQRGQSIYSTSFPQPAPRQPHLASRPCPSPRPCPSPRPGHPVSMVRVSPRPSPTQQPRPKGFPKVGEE


Key:
[1] = molecular target: T1, H7CR-GFP fusion protein on transfected …; assay: flow cytometry, 5 µg/ml variant on H7CR-GFP transfected CHO cells, anti-hIg PE secondary antibody [row HC2-1, column LC1-1]
Experimental: (§1) 5 μg/ml antibodies from thirty-six variants were incubated with H7CR-GFP fusion protein transfected CHO cells for 30 min at room temperature. Cells were then washed twice with 2 ml flow cytometry buffer, and resuspended in 100 μl flow cytometry buffer. 1 μl anti-hIg PE secondary antibody (Biolegend) was added and incubated with the cells for 15 mins Samples were then washed and resuspended in 100 μl flow cytometry buffer. Flow Cytometry data was acquired using BD Canto (BD Biosciences) in plate format and analyzed by FlowJo software.

[2] = molecular target: T2, human H7CR (B7-H7 counter-receptor); assay: binding to human H7CR as endogenously expressed on the surface of a cell
[3] = molecular target: T1, H7CR-GFP fusion protein on transfected …; assay: flow cytometry, 5 µg/ml variant on H7CR-GFP transfected CHO cells, anti-hIg PE secondary antibody [row HC2-1, column LC1-3]
Experimental: as §1

[4] = molecular target: T1, H7CR-GFP fusion protein on transfected …; assay: flow cytometry, 5 µg/ml variant on H7CR-GFP transfected CHO cells, anti-hIg PE secondary antibody [row HC2-1, column LC1-2]
Experimental: as §1

[5] = molecular target: T1, H7CR-GFP fusion protein on transfected …; assay: flow cytometry, 5 µg/ml variant on H7CR-GFP transfected CHO cells, anti-hIg PE secondary antibody [row HC1-3, column LC2-1]
Experimental: as §1

[6] = molecular target: T1, H7CR-GFP fusion protein on transfected …; assay: flow cytometry, 5 µg/ml variant on H7CR-GFP transfected CHO cells, anti-hIg PE secondary antibody [row HC2-1, column LC2-1]
Experimental: as §1

[7] = molecular target: T1, H7CR-GFP fusion protein on transfected …; assay: flow cytometry, 5 µg/ml variant on H7CR-GFP transfected CHO cells, anti-hIg PE secondary antibody [row HC1-3, column LC2-3]
Experimental: as §1

[8] = molecular target: T1, H7CR-GFP fusion protein on transfected …; assay: flow cytometry, 5 µg/ml variant on H7CR-GFP transfected CHO cells, anti-hIg PE secondary antibody [row HC1-3, column LC2-2]
Experimental: as §1

Binder	binding result [2]	other results
4.5 humanized variant 19 (HC2-1 / LC1-1) (antibody, V domains shown, Variable domains only; detected with anti-hIg secondary; also called VH2A / VL1A) VH: QITLKESGPTLVKPTQTLTLTCTFSGFSITTGGYYVGWIRQPPGKALEWLALIYTSGRTRYSPSLKSRLTITKDTSKNQVVLTMTNMDPVDTATYYCADMADKGGWFAYWGQGTLVTVSS VL: DIVMTQSPDSLAVSLGERATINCKSSQSLFSSNTKRNYLAWYQQKPGQPPKLLIYHASTRESGVPDRFSGSGSGTDFTLTISSLQAEDVAVYYCQQHYETPLTFGQGTRLEIK	binds	binding result [1]: binds
4.5 humanized variant 21 (HC2-1 / LC1-3) (antibody, V domains shown, Variable domains only; detected with anti-hIg secondary; also called VH2A / VL1C) VH: QITLKESGPTLVKPTQTLTLTCTFSGFSITTGGYYVGWIRQPPGKALEWLALIYTSGRTRYSPSLKSRLTITKDTSKNQVVLTMTNMDPVDTATYYCADMADKGGWFAYWGQGTLVTVSS VL: DIVMTQSPDSLAVSLGERATINCLSSQSLFSSNTKRNYLNWYQQKPGQSPKLLIYHASTRLSGVPDRFSGSGSGTDFTLTISSLQAEDVADYFCQQHYETPLTFGDGTRLEIK	binds	binding result [3]: binds
4.5 humanized variant 20 (HC2-1 / LC1-2) (antibody, V domains shown, Variable domains only; detected with anti-hIg secondary; also called VH2A / VL1B) VH: QITLKESGPTLVKPTQTLTLTCTFSGFSITTGGYYVGWIRQPPGKALEWLALIYTSGRTRYSPSLKSRLTITKDTSKNQVVLTMTNMDPVDTATYYCADMADKGGWFAYWGQGTLVTVSS VL: DIVMTQSPDSLAVSLGERATINCKSSQSLFSSNTKRNYLNWYQQKPGQPPKLLIYHASTRLSGVPDRFSGSGSGTDFTLTISSLQAEDVADYFCQQHYETPLTFGDGTRLEIK	binds	binding result [4]: binds
4.5 humanized variant 16 (HC1-3 / LC2-1) (antibody, V domains shown, Variable domains only; detected with anti-hIg secondary; also called VH1C / VL2A) VH: QVQLQESGPGLVKPSQTLSLTCTVSGFSITTGGYYWNWIRQFPGKKLEWMGYIYTSGRTSYNPSLKSRVTISRDTSKNQFSLKLSSVTAADTAVYYCADMADKGGWFAYWGQGTLVTVSS VL: DIVMTQTPLSLPVTPGEPASISCRSSQSLFSSNTKRNYLDWYLQKPGQSPQLLIYHASYRASGVPDRFSGSGSGTDFTLKISRVEAEDVGVYYCQQHYETPLTFGQGTRLEIK	binds	binding result [5]: binds
4.5 humanized variant 22 (HC2-1 / LC2-1) (antibody, V domains shown, Variable domains only; detected with anti-hIg secondary; also called VH2A / VL2A) VH: QITLKESGPTLVKPTQTLTLTCTFSGFSITTGGYYVGWIRQPPGKALEWLALIYTSGRTRYSPSLKSRLTITKDTSKNQVVLTMTNMDPVDTATYYCADMADKGGWFAYWGQGTLVTVSS VL: DIVMTQTPLSLPVTPGEPASISCRSSQSLFSSNTKRNYLDWYLQKPGQSPQLLIYHASYRASGVPDRFSGSGSGTDFTLKISRVEAEDVGVYYCQQHYETPLTFGQGTRLEIK	binds	binding result [6]: binds
4.5 humanized variant 18 (HC1-3 / LC2-3) (antibody, V domains shown, Variable domains only; detected with anti-hIg secondary; also called VH1C / VL2C) VH: QVQLQESGPGLVKPSQTLSLTCTVSGFSITTGGYYWNWIRQFPGKKLEWMGYIYTSGRTSYNPSLKSRVTISRDTSKNQFSLKLSSVTAADTAVYYCADMADKGGWFAYWGQGTLVTVSS VL: DIVMTQTPSSLPVTPGEPASISCLSSQSLFSSNTKRNYLNWYLQKPGQSPKLLIYHASTRLSGVPDRFSGSGSGTDFTLKISRVEAEDVGDYFCQQHYETPLTFGDGTRLEIK	binds	binding result [7]: binds
4.5 humanized variant 17 (HC1-3 / LC2-2) (antibody, V domains shown, Variable domains only; detected with anti-hIg secondary; also called VH1C / VL2B) VH: QVQLQESGPGLVKPSQTLSLTCTVSGFSITTGGYYWNWIRQFPGKKLEWMGYIYTSGRTSYNPSLKSRVTISRDTSKNQFSLKLSSVTAADTAVYYCADMADKGGWFAYWGQGTLVTVSS VL: DIVMTQTPLSLPVTPGEPASISCRSSQSLFSSNTKRNYLNWYLQKPGQSPKLLIYHASTRLSGVPDRFSGSGSGTDFTLKISRVEAEDVGDYFCQQHYETPLTFGDGTRLEIK	binds	binding result [8]: binds
